In US20160215040A1 (Regeneron, published 2016):

T1: Ebola virus GP, Sudan strain, on VLPs (Ebola virus, Sudan strain, UniProt Q7T9D9 33-676)
T1 construct: also called Sudan NC_006432
T1 sequence: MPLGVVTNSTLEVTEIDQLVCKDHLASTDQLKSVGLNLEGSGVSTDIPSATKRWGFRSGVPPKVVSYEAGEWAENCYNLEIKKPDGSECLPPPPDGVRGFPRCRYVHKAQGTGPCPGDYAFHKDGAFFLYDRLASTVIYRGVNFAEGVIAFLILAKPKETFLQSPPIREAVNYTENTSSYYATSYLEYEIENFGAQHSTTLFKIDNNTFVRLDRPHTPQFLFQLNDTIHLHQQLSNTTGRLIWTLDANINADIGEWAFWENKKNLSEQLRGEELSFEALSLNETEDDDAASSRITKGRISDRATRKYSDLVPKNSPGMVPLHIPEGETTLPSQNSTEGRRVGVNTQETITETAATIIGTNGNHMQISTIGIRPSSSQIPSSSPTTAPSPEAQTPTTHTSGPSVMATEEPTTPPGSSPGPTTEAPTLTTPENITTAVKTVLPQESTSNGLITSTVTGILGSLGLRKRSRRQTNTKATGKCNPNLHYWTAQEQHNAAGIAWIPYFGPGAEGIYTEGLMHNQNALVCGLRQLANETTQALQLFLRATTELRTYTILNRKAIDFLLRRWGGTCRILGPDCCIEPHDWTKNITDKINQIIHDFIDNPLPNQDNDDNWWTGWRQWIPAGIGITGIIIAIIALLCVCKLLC

T2: Ebola virus GP, Cote d'Ivoire strain, on VLPs (Ebola virus, Cote d'Ivoire strain, UniProt Q66810 33-676)
T2 construct: also called Cote d'Ivoire FJ217162; Ivory Coast
T2 sequence: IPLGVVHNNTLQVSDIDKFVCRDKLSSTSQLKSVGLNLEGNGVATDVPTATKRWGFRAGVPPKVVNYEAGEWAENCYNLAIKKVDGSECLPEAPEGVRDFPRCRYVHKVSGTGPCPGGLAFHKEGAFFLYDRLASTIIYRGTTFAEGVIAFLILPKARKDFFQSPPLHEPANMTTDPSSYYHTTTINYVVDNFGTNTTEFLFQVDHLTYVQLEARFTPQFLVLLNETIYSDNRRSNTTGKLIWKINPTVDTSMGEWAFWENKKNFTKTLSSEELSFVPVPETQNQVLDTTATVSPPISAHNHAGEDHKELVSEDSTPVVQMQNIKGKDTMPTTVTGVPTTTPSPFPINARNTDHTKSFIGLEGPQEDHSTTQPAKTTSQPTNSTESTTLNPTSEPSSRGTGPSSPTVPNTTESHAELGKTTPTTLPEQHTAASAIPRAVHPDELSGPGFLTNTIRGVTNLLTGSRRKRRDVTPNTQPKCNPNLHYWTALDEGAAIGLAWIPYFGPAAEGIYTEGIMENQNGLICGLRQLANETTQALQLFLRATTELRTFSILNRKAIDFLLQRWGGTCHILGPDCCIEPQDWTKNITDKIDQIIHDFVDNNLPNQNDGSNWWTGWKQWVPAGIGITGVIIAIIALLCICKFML


Experiments:
[1] = molecular target: T3, Ebola virus GP with a C-terminal polyhistidine tag (Sino Biologicals, Catalog #40442-V08B1) (Ebola virus, UniProt P87666 33-650); assay: SPR 37C, mAb captured
T3 construct: also called EbolaGP.his; Ebola virus GP.his

[2] = molecular target: T1, Ebola virus GP, Sudan strain, on VLPs; assay: MSD, VLPs coated
[3] = molecular target: T3, Ebola virus GP with a C-terminal …; assay: SPR 25C, mAb captured
[4] = molecular target: T3, Ebola virus GP with a C-terminal …; assay: SPR 37C, mAb captured, pH chase
[5] = molecular target: T2, Ebola virus GP, Cote d'Ivoire strain, …; assay: MSD, VLPs coated

Row | Binder | Kd [1] [nM] | koff [1] [s⁻¹] | kon [1] [M⁻¹ s⁻¹] | t½ [1] [min] | binding result [2] | Kd [3] [nM] | koff [3] [s⁻¹] | kon [3] [M⁻¹ s⁻¹] | t½ [3] [min] | t½ ratio pH 7.4/pH 5.0 [4] | t½ ratio pH 7.4/pH 6.0 [4] | binding result [5]
1 | H2aM17356N (antibody, V domains shown, also called HCAF08C07-09) VH: EVQLVESGGGLVQPGGSLRLSCAASGFTFSSYEMNWVRQAPGKGLEWVSYIGSSGRATYYADSVKGRFTISRDNAKNSLYLQMNSLRAEDTAVYYCARPSSIAALLRNQYHFGMDVWGQGTTVTVSS VL: not shown | 34.4 | 0.00025 | 7260 | 46.2 | no binding | 4.4 | 9.57e-05 | 21800 | 121 | 0.9 | 0.9 | 
2 | H1H17161P (antibody, V domains shown, also called REGN H1H17161P) VH: EVQLVESGGGLVQPGGSLRLSCAASGFTSSSYAMNWVRQAPGKGLEWVSTISGMGGSTYYADSVKGRFTISRDNSKNTLYLQMNSLRAEDTAVYYCAKRGYPHSFDIWGQGTMVTVSS VL: not shown | 0.228 | ≤ 1e-05 | 43900 | ≥ 1160 |  | ≤ 0.189 | ≤ 1e-05 | 52900 | ≥ 1160 | 0.2 | 0.2 | no binding
3 | H1H17151P (antibody, V domains shown) VH: EVQLVESGGGLVQPGGSLRLSCAASGFTFSSYAMNWVRQAPGKGLEWVSVISGSGGWRNYADSVKGRITISRDNSKNTLYLQMNNLRAEDTAVYYCAKDRGATFGVVILGPPYYGMDVWGQGTTVTVSS VL: DIQMTQSPSSLSASVRDRVTITCRASQSISTYLNWYQQKPGKAPKLLIYAASSLQSGVPSRFSGSGSGTGFTLTISSLQPEDFATYYCQQSYSIPYTFGQGTKLEIK | 17 | 0.000383 | 22600 | 30.2 | no binding | 7.49 | 9.44e-05 | 12600 | 122 | 0.01 | 0.03 | no binding
4 | H1H17134P (antibody, V domains shown) VH: QLQLQESGPGLVKPSETLSLTCTVSGGSISSSSYYWGWIRQPPGKGLEWIGSIYYDGDTYYNPSLKSRVTISVDTSKNQFSLRLSSVTAADTAVYYCARQFDYWGQGTLVTVSS VL: not shown | 6.7 | 0.000469 | 69900 | 24.6 | no binding | 12.3 | 0.000941 | 76500 | 12.3 | 0.6 | 0.6 | no binding
5 | H2aM17359N (antibody, V domains shown, also called HCAF12C06-26) VH: EVQLVESGGGLAQPGGSLRLSCAASGFTFSSHEMNWVRQAPGKGLEWVSYISRSGRIINYADSVKGRFTISRDNAKNSLYLQMNSLRAEDTAVYYCARERGSYYDILTGSQDYGMDVWGQGTTVTVSS VL: not shown | 22.9 | 0.000352 | 15400 | 32.8 | no binding | 50.9 | 0.000195 | 3820 | 59.4 | 0.7 | 0.8 | no binding
